Measurements reported in article PMC13436963.
Numbering of substitutions follows the chain as printed. In names and notes the source's numbering stands. One block for each molecule: values may come before it.

Assays:
[1] = biological target: EGFP-tagged full-length Drosophila Notch [Drosophila melanogaster]; test: luciferase-coupled co-immunoprecipitation (GFP-trap); conditions: S2 cells, Notch-GFP WT, n=4, parent: 1, read off a plot
[2] = biological target: T1, Drosophila Notch LNR domain F1563A fused to split firefly luciferase fragments, P07207; test: split-luciferase complementation assay; conditions: chain shown with the change; S2 cells; bar labelled 'F1563A + F1563A'; n=5; parent: 1.0; read off a plot
T1 chain: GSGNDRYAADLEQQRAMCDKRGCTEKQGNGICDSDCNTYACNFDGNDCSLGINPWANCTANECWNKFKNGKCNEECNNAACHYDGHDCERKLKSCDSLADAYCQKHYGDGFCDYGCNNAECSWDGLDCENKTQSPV

[3] = biological target: T2, Drosophila Notch LNR domain H1570A fused to split firefly luciferase fragments, P07207; test: split-luciferase complementation assay; conditions: chain shown with the change; S2 cells; bar labelled 'H1570A + H1570A'; n=5; parent: 1.0; read off a plot
T2 chain: T1 chain with A99F, H106A

ratio to parent ([1]; LNR-Luc H1570A): 0.97
Molecule: luciferase-tagged Drosophila Notch LNR domain (residues G1465 to V1600) mutant H1570A [Drosophila melanogaster] / EGFP-tagged full-length Drosophila Notch [Drosophila melanogaster] chain 1 H106A

ratio to parent ([1]; LNR-Luc F1563A): 1.1
Molecule: luciferase-tagged Drosophila Notch LNR domain (residues G1465 to V1600) mutant F1563A [Drosophila melanogaster] / EGFP-tagged full-length Drosophila Notch [Drosophila melanogaster] chain 1 F99A

ratio to parent [2]: 0.96
B1: Drosophila Notch LNR domain fused to split firefly luciferase fragments (LNR–NLuc and LNR–CLuc), P07207 F1563A (N-Luc copy); F1563A (C-Luc copy) (protein)
chain: T1 chain

ratio to parent [3]: 0.87
B2: Drosophila Notch LNR domain fused to split firefly luciferase fragments (LNR–NLuc and LNR–CLuc), P07207 H1570A (N-Luc copy); H1570A (C-Luc copy) (protein)
chain: T1 chain with A99F, H106A
